Results as given in patent US10858423B2, “Composition for the treatment of IGF-1R expressing cancer” (PIERRE FABRE MEDICAMENT, priority 2015, dated 2020).

Legend:
soluble form of h-IGF1R = target: T1, soluble form of h-IGF1R (Homo sapiens, UniProt P08069); test: Biacore binding competition on captured soluble h-IGF1R; conditions: antibodies 50 μg/ml, 25° C.
T1 construct: a heterotetramer composed by two alpha chains and two extracellular domains of the beta chains; made in house
From the text: The experiment was run on a Biacore X100 device based on the Surface Plasmon Resonance technology. A CM5 sensor chip was activated with a mouse anti-polyHistidine IgG1 monoclonal antibody chemically linked to the carboxymethyldextran matrix using the amine coupling chemistry. Typically, 12451 RU and 12257 RU of antibodies were grafted on the flowcell 1 (FC1) and flowcell 2 (FC2) respectively. The classical HBS-EP+ buffer was used as the running buffer. This buffer was also used for the preparation of the solutions of the proteins. The experiment was carried at 25° C. and at a flow rate of […].
The soluble form of IGF1R produced in house is a heterotetramer composed by two alpha chains and two extracellular domains of the beta chains completed by a 6 Histidine sequence at their C-terminal end. The protein is injected during one minute on the FC2 at the concentration of 30 μg/ml (about 80 nM). The antibodies are injected at the concentration of 50 μg/ml (about 330 nM). Either a first antibody solution (FIGS. 35B and 35D) or the running buffer (FIGS. 35A and 35C) is injected during 90 s on both flowcells. A second antibody solution is then injected on both flow cells. The absence of binding of the second antibody after the binding of the first antibody is the proof that both antibodies bind to a nearby site on the antigen (FIG. 35B) At the opposite the binding of the second antibody after the binding of the first antibody is the proof that the binding site of the second antibody is out and away of the binding site of the first antibody (FIG. 35D). At the end of each cycle, the sensor chip surface is regenerated by an injection of a Glycine, HCl 10 mM pH 1.5 buffer during 30 s.
The levels of binding of the Ac2 (arrows) without (FIGS. 35A and 35B) or with an Ac1 (FIGS. 35C and 35D) were recorded 20 s after the end of the injection. The data are represented on the histogram graph in FIG. 36.

rmIGF-1R = rmIGF-1R (Mus musculus, UniProt Q60751); test: direct ELISA on rmIGF-1R coating (816C12, 810D12); assay type: binding, murine; conditions: for OD values obtained at 5 μg/ml by ELISA, rmIGF-1R coating: OD at 450 nm; for binding to the murine form of the IGF-1R: ELISA
Sequence of rmIGF-1R (Q60751 31-1373): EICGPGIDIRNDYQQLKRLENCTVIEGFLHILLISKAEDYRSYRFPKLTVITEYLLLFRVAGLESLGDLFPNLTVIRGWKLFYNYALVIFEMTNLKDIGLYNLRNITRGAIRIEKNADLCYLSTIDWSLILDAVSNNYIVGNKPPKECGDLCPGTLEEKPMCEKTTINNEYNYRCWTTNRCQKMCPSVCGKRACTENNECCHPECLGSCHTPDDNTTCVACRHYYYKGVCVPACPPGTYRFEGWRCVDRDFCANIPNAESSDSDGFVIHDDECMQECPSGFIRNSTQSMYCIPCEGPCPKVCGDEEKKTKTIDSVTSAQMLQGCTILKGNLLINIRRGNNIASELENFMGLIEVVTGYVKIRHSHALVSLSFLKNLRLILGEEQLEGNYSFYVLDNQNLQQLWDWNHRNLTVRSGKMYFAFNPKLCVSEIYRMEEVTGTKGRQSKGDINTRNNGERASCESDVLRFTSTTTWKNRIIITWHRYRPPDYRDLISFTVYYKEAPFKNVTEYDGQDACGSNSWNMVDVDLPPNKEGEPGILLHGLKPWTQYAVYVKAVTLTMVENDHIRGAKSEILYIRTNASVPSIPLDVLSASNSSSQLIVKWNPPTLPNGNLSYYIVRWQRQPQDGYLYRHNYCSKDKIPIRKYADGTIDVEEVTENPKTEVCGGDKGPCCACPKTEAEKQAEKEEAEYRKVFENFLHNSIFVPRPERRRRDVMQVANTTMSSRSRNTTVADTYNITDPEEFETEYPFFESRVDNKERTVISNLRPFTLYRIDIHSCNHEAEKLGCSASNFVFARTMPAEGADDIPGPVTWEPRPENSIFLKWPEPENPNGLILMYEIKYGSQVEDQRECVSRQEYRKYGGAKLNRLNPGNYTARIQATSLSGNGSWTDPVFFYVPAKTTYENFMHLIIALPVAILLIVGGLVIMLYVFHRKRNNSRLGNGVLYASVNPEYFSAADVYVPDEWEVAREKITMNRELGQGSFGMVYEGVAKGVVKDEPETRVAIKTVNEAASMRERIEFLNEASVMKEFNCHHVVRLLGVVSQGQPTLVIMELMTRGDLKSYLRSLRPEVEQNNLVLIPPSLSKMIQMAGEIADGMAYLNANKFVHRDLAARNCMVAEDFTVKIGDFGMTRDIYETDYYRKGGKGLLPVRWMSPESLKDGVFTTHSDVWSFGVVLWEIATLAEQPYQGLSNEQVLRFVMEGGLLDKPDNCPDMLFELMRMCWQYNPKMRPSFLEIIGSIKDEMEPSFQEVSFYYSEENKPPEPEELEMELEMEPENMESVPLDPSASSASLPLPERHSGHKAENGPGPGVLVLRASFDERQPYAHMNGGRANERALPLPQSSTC
Protocol: (§1) Further characterizations of 816C12 and 810D12 were then performed using hybridoma supernatant such as rhIGF-1R or rmIGF-1R or rhIR ELISA. In all direct ELISAs, proteins of interest were immobilized (1 μg/ml) to the bottom of each well. After saturation, hybridoma supernatants were added to the wells. After a 1-hour incubation period and a washing step, a solution of goat anti-mouse IgG—HRP labelled polyclonal antibody was used for detection, prior to the addition of the TMB substrate. The reaction was stopped with a 1M H2SO4 solution before reading the OD with a spectrophotometer at a 450 nm wavelength.

IGF-1R, SBC-5 tumor = target: T2, IGF-1R, SBC-5 tumor (Homo sapiens, UniProt P08069); test: IHC detection of IGF-1R on SBC-5 xenograft sections; design: key: No reactivity or membranous reactivity in less than 10% of tumour cells; 1+: Faint/barely perceptible membranous reactivity is detected in more than 10% of tumour cells. The cells are immunoreactive only in part of the membrane.; 2+: Weak to moderate complete membranous reactivity is seen in more than 10% of tumour cells.; 3+: Strong complete reactivity is seen in more than 10% of tumour cells; conditions: same protocol as MCF-7; paraffin embedded tumor
T2 construct: from tissue; host or cells: SBC-5 xenograft tumour grown in athymic mice, paraffin sections
Protocol: (§2) Sections of tissue from MCF-7 xenograft were deparaffinized, rehydrated, and placed in Target Retrieval Buffer 1× (Dako S1699) in a boiling bath pre-warm at 98° C. for heat-induced epitope retrieval at 98° C. for 40 minutes then 20 additional minutes in the Target Retrieval Buffer. After 3 washes in Tris Buffer Saline-0.05% tween 20 (TBS-T) (Dako S3006) the Endogenous peroxidase activity was blocked using Peroxidase Blocking Reagent (Dako K4007) for five minutes. Sections were washed with TBS-T and incubated a blocking reagent (UltraV block-TA-125UB-LabVision) for 5 minutes before incubation with either the 816C12 monoclonal antibody (at 5 μg/ml) or mouse IgG1/kappa (5 μg/ml, X0931, Dako) as negative control for 1 hours at room temperature. Sections were washed with TBS-T and incubated with Envision (Dako) for 30 minutes. Diaminobenzidine was used for development of a brown reaction product (Dako K3468). The slides were immersed in hematoxylin for 2 minutes to counterstain (Dako S3309).
Level of IGF-1R was analyzed using the same protocol described in section 2.1 of the example 2 before.

rhIGF-1R = target: T3, rhIGF-1R (Homo sapiens, UniProt P08069); test: direct ELISA on rhIGF-1R coating (816C12, 810D12); assay type: binding; conditions: for OD values obtained at 5 μg/ml by ELISA, rhIGF-1R coating: OD at 450 nm; for EC50: ELISA dose response, Prism
T3 construct: poorly recognize the rhIGF-1R ECD protein when directly coated to ELISA plates; purchased R&D Systems 391-GR
Protocol: as §1
The dose response curves for the second IGF-1R antibodies on rhIGF-1R coating are presented in FIG. 1 for the 816C12 and in FIG. 1B for the 810D12. The values of the EC50 are determined using Prism application.

[1] = target: T4, IGF-1R, MCF-7 tumor cells (Homo sapiens, UniProt P08069); test: IHC detection of IGF-1R on MCF-7 xenograft sections; design: key: No reactivity or membranous reactivity in less than 10% of tumour cells; 1+: Faint/barely perceptible membranous reactivity is detected in more than 10% of tumour cells. The cells are immunoreactive only in part of the membrane.; 2+: Weak to moderate complete membranous reactivity is seen in more than 10% of tumour cells.; 3+: Strong complete reactivity is seen in more than 10% of tumour cells; conditions: membranous algorithm; antibody 5 μg/ml; paraffin embedded tumor
T4 construct: from tissue; host or cells: MCF-7 xenograft tumour grown in Swiss/Nude mice, paraffin sections
Protocol: as §2

rhIR = rhIR (Homo sapiens, UniProt P06213); test: direct ELISA on rhIR coating (816C12, 810D12); assay type: binding; conditions: for OD values obtained at 5 μg/ml by ELISA, rhIR coating: OD at 450 nm; for binding to the human IR: ELISA
Protocol: as §1

[2] = target: T5, MCF-7 breast adenocarcinoma cell line (Homo sapiens, UniProt P08069); test: FACS binding of humanized variants on MCF-7
T5 construct: host or cells: MCF-7
Protocol: The binding properties of the humanized variants were evaluated by FACS analyses on the human MCF-7 breast adenocarcinoma cell line and the monkey cell line Cos-7 using increasing antibody concentrations. For that purpose, cells (1×10^6 cells/ml) were incubated with anti-IGF-1R antibodies for 20 min. at 4° C. in FACS buffer (PBS, 0.1% BSA, 0.01% NaN3). They were then washed 3 times and incubated with the appropriate secondary antibody coupled with Alexa 488 for 20 additional minutes at 4° C. in the dark before being washed 3 times in FACS buffer. The binding of anti-IGF-1R antibodies was immediately performed on viable cells which were identified using propidium iodide (that stains dead cells). The EC50 of binding expressed in molarity (M) was calculated using a nonlinear regression analysis (GraphPad Prims 4.0).

Row | Molecule | binding as Ac2 after Hz208F2-4 injected as Ac1 (soluble form of h-IGF1R) | OD values obtained at 5 μg/ml by ELISA, rmIGF-1R coating (rmIGF-1R) | binding to the murine form of the IGF-1R (rmIGF-1R) | IHC scoring of IGF-1R in SBC-5 tumor (IGF-1R, SBC-5 tumor) | OD values obtained at 5 μg/ml by ELISA, rhIGF-1R coating (rhIGF-1R) | EC50 (rhIGF-1R) | IHC scoring of the staining of MCF-7 tumor cells [1] | OD values obtained at 5 μg/ml by ELISA, rhIR coating (rhIR) | binding to the human IR (rhIR) | EC50 [2]
1 | 810D12: first IGF-1R mouse monoclonal antibody, hybridoma CNCM I-4893; VH SEQ ID No. 7, VL SEQ ID No. 8 (antibody, V domains shown, 810D12 I-4893, heavy chain, Variable domain; 810D12 I-4893, light chain, Variable domain) VH: EVQLQQSGPELVKPGASVKMSCKASGHTFTSYMLHWVKQKPGQGLEWLGFINPYNDVTKYNENFKGKATLTSDKSSSTAYMELNSLTSEDSAVYFCVTTAYYGNGRYFDVWGAGTTVTVSS VL: DIQMTQTTSSLSASLGDRVTISCRASQDITNYLTWYQQKPDGTVKVLIYYTSRLYSGVPSRFSGSGSGSDYSLTINNLEQEDIATYFCQQGYSLPWTFGGGTKLEIK | practically no effect | 1.293 | do not bind | 1+ | 2.136 | 0.51 nM | 3+ | 0.048 | do not bind | –
2 | 816C12: first IGF-1R mouse monoclonal antibody, hybridoma CNCM I-4894; VH SEQ ID No. 17, VL SEQ ID No. 18 (antibody, V domains shown, 816C12 I-4894, heavy chain, Variable domain; 816C12 I-4894, light chain, Variable domain) VH: EVQLQQSGPELVKPGASVKMSCKASGHTFTSYVLHWMKRKPGQGLEWIGYINPHNDVTKYNENFKGKATLTSDKYSSTVYMEVSSLTSEDSAVYYCVSTAYYGNGRYFDVWGAGTTVTVSS VL: DIQMTQTTSSLSASLGDRVTISCRASQDINNYLNWYQQKPDGTVKLLIYYTSRLHSGVSSRFSGSGSGTDYSLTISNLEQEDIATYFCQQGNTLPWTFGGGTKLEIK | practically no effect | 0.065 | do not bind | 1+ | 2.622 | 0.41 nM | 3+ | 0.055 | do not bind | –
3 | hz208F2 H049/L021: humanized 208F2; VH SEQ ID No. 41, VL SEQ ID No. 37 (antibody, V domains shown, hz208F2 heavy chain H049, VH; hz208F2 Light chain L021, VL) VH: QVQLVQSGAEVKKPGASVKVSCKASGYTFTSYYMHWVRQAPGQGLEWMGWIWPGDGSTKYAQKFQGRVTMTRDKSSSTVYMELSSLRSEDTAVYYCASPMITPNYAMDYWGQGTLVTVSS VL: DIQMTQSPSSLSASVGDRVTITCRASQDISKYLNWYQQKPGKAPKLLIYYTSRLHSGVPSRFSGRGSGTDFSLTISSLQPEDFATYFCQQGSTLPYTFGGGTKVEIK | – | – | – | – | – | – | – | – | – | 0.66 nM
4 | hz208F2 H076/L021: humanized 208F2; VH SEQ ID No. 55, VL SEQ ID No. 37 (antibody, V domains shown, hz208F2 heavy chain H076, VH; hz208F2 Light chain L021, VL) VH: QVQLVQSGAEVKKPGASVKVSCKASGYTFTSYYIHWVRQAPGQGLEWMGWIWPGDGSTKYAQKFQGRVTMTRDTSTSTVYMELSSLRSEDTAVYYCASPMITPNYAMDYWGQGTLVTVSS VL: DIQMTQSPSSLSASVGDRVTITCRASQDISKYLNWYQQKPGKAPKLLIYYTSRLHSGVPSRFSGRGSGTDFSLTISSLQPEDFATYFCQQGSTLPYTFGGGTKVEIK | – | – | – | – | – | – | – | – | – | 0.58 nM
